Test results taken from publication PMC3185043.

What was measured:
Test in all cases: pull-down SILAC MS
[1] = system: MeCP2 (U937 nuclear extract) (Homo sapiens); settings: reverse ratio 0.18572; 5-methylcytosine at CpG (M.SssI); EMSA: 20 mM HEPES pH 7.9, 1 mM EDTA, 3 mM MgCl2, 10 mM beta-mercaptoethanol, 10% glycerol, 0.1% Triton X-100, 2 ug BSA, 10 ng poly(dI-dC), 30 min on ice …; scale: H/L ratio methylated/unmethylated
[2] = system: MBD2 (U937 nuclear extract) (Homo sapiens); settings: 5-methylcytosine at CpG (M.SssI); EMSA: 20 mM HEPES pH 7.9, 1 mM EDTA, 3 mM MgCl2, 10 mM beta-mercaptoethanol, 10% glycerol, 0.1% Triton X-100, 2 ug BSA, 10 ng poly(dI-dC), 30 min on ice …; scale: H/L ratio methylated/unmethylated
[3] = system: RBP-J (U937 nuclear extract) (Homo sapiens); settings: reverse ratio 0.11974; 5-methylcytosine at CpG (M.SssI); EMSA: 20 mM HEPES pH 7.9, 1 mM EDTA, 3 mM MgCl2, 10 mM beta-mercaptoethanol, 10% glycerol, 0.1% Triton X-100, 2 ug BSA, 10 ng poly(dI-dC), 30 min on ice …; scale: H/L ratio methylated/unmethylated

Substance “GSTP1 CpG-island multimer, methylated (pull-down)” has a binding signal [1] of 4.54, a binding signal [2] of 12.9 and a binding signal [3] of 6.21.
